Experimental data published in patent EP4663762A2 (HongKong Bioheng Biotech Limited, dated 2025).
Values belong to the binder of their own block, whether it stands above or below them.

Experiments:
Test in all cases: flow cytometry, soluble tagged antigen staining T cells that carry the construct
[1] = biological target: T1, Human PD-1 / PDCD1 Protein, His Tag (ACRO) (human, UniProt Q15116 25-167)
T1 construct: Bought reagent (ACRO); no catalogue number, no construct limits; also called CD279; not shown: His tag
T1 sequence (Q15116 25-167 limits assumed): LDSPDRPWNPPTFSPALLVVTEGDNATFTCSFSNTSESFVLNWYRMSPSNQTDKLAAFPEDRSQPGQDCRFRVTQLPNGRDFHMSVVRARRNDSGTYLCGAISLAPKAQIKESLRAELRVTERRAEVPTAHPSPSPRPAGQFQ

[2] = biological target: T2, Human NKG2A&CD94 Protein, Fc Tag (ACRO) (human, UniProt P26715 94-233; Q13241 32-179, limits assumed)
T2 construct: Bought heterodimer reagent (ACRO) with Fc tag
T2 sequence (P26715 94-233 limits assumed, chain 1 of 2): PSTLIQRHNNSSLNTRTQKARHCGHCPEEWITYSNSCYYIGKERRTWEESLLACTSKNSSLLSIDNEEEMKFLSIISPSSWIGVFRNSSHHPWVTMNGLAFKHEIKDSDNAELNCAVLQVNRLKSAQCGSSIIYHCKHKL
T2 sequence (Q13241 32-179 limits assumed, chain 2 of 2): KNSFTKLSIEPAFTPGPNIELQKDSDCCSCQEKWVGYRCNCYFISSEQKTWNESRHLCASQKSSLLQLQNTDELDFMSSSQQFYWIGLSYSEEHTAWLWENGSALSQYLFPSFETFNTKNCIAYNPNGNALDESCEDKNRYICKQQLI

[3] = biological target: T3, Human TIGIT Protein, Fc Tag (ACRO) (human, UniProt Q495A1 22-141)
T3 construct: Bought reagent (ACRO); no catalogue number, no construct limits; also called Human TIGIT Protein, Fc TagTIGIT; not shown: Fc tag
T3 sequence (looked up): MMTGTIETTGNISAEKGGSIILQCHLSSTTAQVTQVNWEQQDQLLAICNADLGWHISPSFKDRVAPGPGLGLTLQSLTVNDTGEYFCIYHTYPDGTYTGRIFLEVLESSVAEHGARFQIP

[4] = biological target: T4, Human CTLA-4 / CD152 Protein, Fc Tag (ACRO) (human, UniProt P16410 36-161, limits assumed)
T4 construct: Bought reagent (ACRO); no catalogue number, no construct limits; not shown: Fc tag
T4 sequence (looked up): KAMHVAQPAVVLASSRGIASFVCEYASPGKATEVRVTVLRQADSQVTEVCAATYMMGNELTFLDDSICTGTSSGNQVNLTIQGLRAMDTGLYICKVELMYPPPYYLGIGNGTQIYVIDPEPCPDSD

- binding result [1]: binds
- binding result [2]: binds
B1: immunosuppressive molecule of plasmid CAR18.2-PA (anti-PD1 scFv, linker, anti-NKG2A scFv, IgG4 hinge, CD28 transmembrane region, CD28 co-stimulatory domain), … (other)
chain: QVQLVQSGVEVKKPGASVKVSCKASGYTFTNYYMYWVRQAPGQGLEWMGGINPSNGGTNFNEKFKNRVTLTTDSSTTTAYMELKSLQFDDTAVYYCARRDYRFDMGFDYWGQGTTVTVSSGGGGSGGGGSGGGGSEIVLTQSPATLSLSPGERATLSCRASKGVSTSGYSYLHWYQQKPGQAPRLLIYLASYLESGVPARFSGSGSGTDFTLTISSLEPEDFAVYYCQHSRDLPLTFGGGTKVEIKGGGGSGGGGSGGGGSEIVLTQSPATLSLSPGERATMTCSASSSVSSYIYWYQQKPGQAPRLLIYLTSNLASGIPARFSGSGSGTDFTLTISSLEPEDFATYYCQQWSGNPYTFGQGTKVEIKGSTSGSGKPGSGEGSTKGEVQLVESGGGLVKPGGSLRLSCAASGFTFSSYAMSWVRQAPGKGLEWVAEISSGGSYTYYPDSVKGRFTISRDNAKNSLYLQMNSLRAEDTAVYYCTRHGDYPRFFDVWGQGTLVTVSSESKYGPPCPPCPFWVLVVVGGVLACYSLLVTVAFIIFWVRSKRSRLLHSDYMNMTPRRPGPTRKHYQPYAPPRDFAAYRS

- binding result [3]: binds
B2: immunosuppressive molecule of plasmid CAR19-ATT (anti-NKG2A scFv, linker, anti-TIGIT scFv, IgG4 hinge, CD28 transmembrane region, CD28 co-stimulatory domain), … (other)
chain: EIVLTQSPATLSLSPGERATMTCSASSSVSSYIYWYQQKPGQAPRLLIYLTSNLASGIPARFSGSGSGTDFTLTISSLEPEDFATYYCQQWSGNPYTFGQGTKVEIKGSTSGSGKPGSGEGSTKGEVQLVESGGGLVKPGGSLRLSCAASGFTFSSYAMSWVRQAPGKGLEWVAEISSGGSYTYYPDSVKGRFTISRDNAKNSLYLQMNSLRAEDTAVYYCTRHGDYPRFFDVWGQGTLVTVSSGGGGSGGGGSGGGGSEVQLQQSGPGLVKPSQTLSLTCAISGDSVSSNSAAWNWIRQSPSRGLEWLGKTYYRFKWYSDYAVSVKGRITINPDTSKNQFSLQLNSVTPEDTAVFYCTRESTTYDLLAGPFDYWGQGTLVTVSSGGGGSGGGGSGGGGSDIVMTQSPDSLAVSLGERATINCKSSQTVLYSSNNKKYLAWYQQKPGQPPNLLIYWASTRESGVPDRFSGSGSGTDFTLTISSLQAEDVAVYYCQQYYSTPFTFGPGTKVEIKRESKYGPPCPPCPFWVLVVVGGVLACYSLLVTVAFIIFWVRSKRSRLLHSDYMNMTPRRPGPTRKHYQPYAPPRDFAAYRS
notes: Membrane-anchored on transduced T cells that also express the anti-CD19 CAR

- binding result [4]: binds
- binding result [2]: binds
B3: immunosuppressive molecule of plasmid CAR19-AC4 (anti-NKG2A scFv, linker, anti-CTLA4 scFv, IgG4 hinge, CD28 transmembrane region, CD28 co-stimulatory domain), … (other)
chain: EIVLTQSPATLSLSPGERATMTCSASSSVSSYIYWYQQKPGQAPRLLIYLTSNLASGIPARFSGSGSGTDFTLTISSLEPEDFATYYCQQWSGNPYTFGQGTKVEIKGSTSGSGKPGSGEGSTKGEVQLVESGGGLVKPGGSLRLSCAASGFTFSSYAMSWVRQAPGKGLEWVAEISSGGSYTYYPDSVKGRFTISRDNAKNSLYLQMNSLRAEDTAVYYCTRHGDYPRFFDVWGQGTLVTVSSGGGGSGGGGSGGGGSQVQLVESGGGVVQPGRSLRLSCAASGFTFSSYGMHWVRQAPGKGLEWVAVIWYDGSNKYYADSVKGRFTISRDNSKNTLYLQMNSLRAEDTAVFYCARAPNYIGAFDVWGQGTMVTVSSGGGGSGGGGSGGGGSDIQMTQSPSSLSASVGDRVTITCRASQGISSWLAWYQQKPEKAPKSLIYAASSLQSGVPSRFSGSGSGTDFTLTISSLQPEDFATYYCQQYNSYPPTFGQGTKVEIKESKYGPPCPPCPFWVLVVVGGVLACYSLLVTVAFIIFWVRSKRSRLLHSDYMNMTPRRPGPTRKHYQPYAPPRDFAAYRS
notes: as for B2

- binding result [4]: binds
- binding result [3]: binds
B4: immunosuppressive molecule of plasmid CAR19-C4TT (anti-CTLA4 scFv, linker, anti-TIGIT scFv, IgG4 hinge, CD28 transmembrane region, CD28 co-stimulatory domain), … (other)
chain: QVQLVESGGGVVQPGRSLRLSCAASGFTFSSYGMHWVRQAPGKGLEWVAVIWYDGSNKYYADSVKGRFTISRDNSKNTLYLQMNSLRAEDTAVFYCARAPNYIGAFDVWGQGTMVTVSSGGGGSGGGGSGGGGSDIQMTQSPSSLSASVGDRVTITCRASQGISSWLAWYQQKPEKAPKSLIYAASSLQSGVPSRFSGSGSGTDFTLTISSLQPEDFATYYCQQYNSYPPTFGQGTKVEIKGGGGSGGGGSGGGGSEVQLQQSGPGLVKPSQTLSLTCAISGDSVSSNSAAWNWIRQSPSRGLEWLGKTYYRFKWYSDYAVSVKGRITINPDTSKNQFSLQLNSVTPEDTAVFYCTRESTTYDLLAGPFDYWGQGTLVTVSSGGGGSGGGGSGGGGSDIVMTQSPDSLAVSLGERATINCKSSQTVLYSSNNKKYLAWYQQKPGQPPNLLIYWASTRESGVPDRFSGSGSGTDFTLTISSLQAEDVAVYYCQQYYSTPFTFGPGTKVEIKRESKYGPPCPPCPFWVLVVVGGVLACYSLLVTVAFIIFWVRSKRSRLLHSDYMNMTPRRPGPTRKHYQPYAPPRDFAAYRS
notes: as for B2
